Laboratory results from CN115368458A (BIO THERA SOLUTIONS LTD, dated 2022).
Numbering of substitutions follows the chain as printed.

T1: 人源hCD73-His (北京义翘神州, Catalog 10904-H08H) (human, UniProt P21589 27-547)
T1 construct: Bought protein; also called 人CD73; not shown: His tag
T1 sequence (looked up): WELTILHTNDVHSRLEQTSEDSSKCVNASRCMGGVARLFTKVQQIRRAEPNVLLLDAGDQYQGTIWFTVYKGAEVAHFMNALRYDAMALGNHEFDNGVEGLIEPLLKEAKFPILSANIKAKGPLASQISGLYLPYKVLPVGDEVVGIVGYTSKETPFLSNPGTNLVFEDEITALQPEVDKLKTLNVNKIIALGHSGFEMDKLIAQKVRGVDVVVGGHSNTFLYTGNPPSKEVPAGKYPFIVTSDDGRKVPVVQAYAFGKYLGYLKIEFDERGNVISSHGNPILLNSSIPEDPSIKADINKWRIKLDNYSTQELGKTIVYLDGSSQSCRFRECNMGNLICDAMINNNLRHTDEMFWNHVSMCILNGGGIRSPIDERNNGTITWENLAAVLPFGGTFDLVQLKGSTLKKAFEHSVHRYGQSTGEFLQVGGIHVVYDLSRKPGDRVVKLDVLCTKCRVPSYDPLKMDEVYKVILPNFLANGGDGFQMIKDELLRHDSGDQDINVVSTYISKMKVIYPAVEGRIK

T2: CD73 on the cell membrane of MDA-MB-231 cells (human breast cancer cells) (human, UniProt P21589 27-549)
T2 sequence (looked up): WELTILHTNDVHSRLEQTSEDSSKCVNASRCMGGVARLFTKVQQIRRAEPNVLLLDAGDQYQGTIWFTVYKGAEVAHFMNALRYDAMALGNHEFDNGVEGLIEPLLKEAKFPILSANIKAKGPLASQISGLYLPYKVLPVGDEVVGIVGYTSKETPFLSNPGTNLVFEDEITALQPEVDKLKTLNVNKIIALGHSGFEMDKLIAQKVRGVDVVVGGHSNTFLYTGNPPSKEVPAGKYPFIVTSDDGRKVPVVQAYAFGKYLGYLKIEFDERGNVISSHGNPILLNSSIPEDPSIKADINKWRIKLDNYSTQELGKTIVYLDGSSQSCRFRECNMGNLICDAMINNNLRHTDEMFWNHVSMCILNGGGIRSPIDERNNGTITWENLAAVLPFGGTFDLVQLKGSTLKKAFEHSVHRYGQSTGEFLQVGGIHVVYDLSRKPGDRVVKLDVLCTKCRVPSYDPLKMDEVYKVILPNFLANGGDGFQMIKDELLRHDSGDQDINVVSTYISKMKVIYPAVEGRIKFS

T3: 鼠源mCD73-His (近岸生物, Catalog CD3-M52H9) (mouse, UniProt Q61503 29-551)
T3 construct: Bought protein; also called 小鼠CD73; not shown: His tag
T3 sequence (looked up): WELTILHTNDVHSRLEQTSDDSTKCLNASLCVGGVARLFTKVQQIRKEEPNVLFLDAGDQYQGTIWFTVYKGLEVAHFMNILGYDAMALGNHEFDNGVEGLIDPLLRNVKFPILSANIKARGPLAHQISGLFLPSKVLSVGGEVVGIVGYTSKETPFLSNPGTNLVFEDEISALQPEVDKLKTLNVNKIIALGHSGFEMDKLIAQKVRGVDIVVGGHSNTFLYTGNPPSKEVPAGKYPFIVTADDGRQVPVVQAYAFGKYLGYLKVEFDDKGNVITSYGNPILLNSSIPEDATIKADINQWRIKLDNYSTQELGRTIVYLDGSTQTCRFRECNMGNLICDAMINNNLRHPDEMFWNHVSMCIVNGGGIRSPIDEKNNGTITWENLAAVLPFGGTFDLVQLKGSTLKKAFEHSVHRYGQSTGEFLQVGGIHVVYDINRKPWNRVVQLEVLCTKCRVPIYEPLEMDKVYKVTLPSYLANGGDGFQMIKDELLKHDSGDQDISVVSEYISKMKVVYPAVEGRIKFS

T4: 食蟹猴cCD73-His (近岸生物, Catalog CD3-C52H9) (cynomolgus monkey, UniProt A0A2K5V5U7 27-547)
T4 construct: Bought protein; also called 食蟹猴CD73; not shown: His tag
T4 sequence: T1 sequence (looked up) with M199T, T350A, V466I

B1: 抗体P59-L12 (antibody, IgG1, V domains shown)
VH: EVQLVESGGGLVQPGGSLRLSCAASGFSFDTYAMSWVRQAPGKGLEWVSAISGDTGVTGYADSVKGRFTISRDNSKNTLYLQMNSLRAEDTAVYYCARDRYAYLVDGWFDYWGQGTLVTVSS
VL: DIQMTQSPSSLSASVGDRVTITCRASQGISSYLAWYQQKPGKAPKLLIYAASSLQSGVPSRFSGSGSGTDFTLTISSLQPEDFATYYCQTSDFFPNPVTFGQGTKVEIK
B2: 抗体P59-L1 (antibody, IgG1, V domains shown)
VH: B1 VH
VL: B1 VL with T90Q, S91A, D92S, F93Y, F94T, P95G, N96D
B3: 抗体P59-L17 (antibody, IgG1, V domains shown)
VH: B1 VH
VL: B1 VL with S91W, D92S, F93G, F94W, N96D, P97Y, V98L
notes: also called P59-17
B4: 抗体P59-L6 (antibody, IgG1, V domains shown)
VH: B1 VH
VL: B1 VL with Q89A, T90Q, S91Y, F94S, P95F, N96Y, P97G

Tests used:
[1] = molecular target: T1, 人源hCD73-His (北京义翘神州, Catalog 10904-H08H); test: SPR, Biacore T200, antibody captured on Protein A chip, hCD73-His as analyte from 32 nM, 1:1 model
[2] = molecular target: T2, CD73 on the cell membrane of MDA-MB-231 …; test: cell-based or functional assay
[3] = molecular target: T3, 鼠源mCD73-His (近岸生物, Catalog CD3-M52H9); test: ELISA, mCD73-His coated at 2 μg/ml, anti-h-Kappa-HRP detection; NA表示不结合或基本不结合
[4] = molecular target: T4, 食蟹猴cCD73-His (近岸生物, Catalog CD3-C52H9); test: ELISA, cCD73-His coated at 2 μg/ml, antibody from 4 μg/ml in 3-fold steps, anti-h-Kappa-HRP
[5] = molecular target: T1, 人源hCD73-His (北京义翘神州, Catalog 10904-H08H); test: ELISA, hCD73-His coated at 2 μg/ml, antibody from 4 μg/ml in 3-fold steps, anti-h-Kappa-HRP
[6] = molecular target: T2, CD73 on the cell membrane of MDA-MB-231 …; test: flow cytometry (MFI) on MDA-MB-231 cells, antibody from 10 ug/ml in 2-fold steps, anti-humanFc-PE

Binder	Kd [1]	koff [1]	kon [1]	IC50 of the inhibition of the enzyme activity of cell membrane CD73 (MDA-MB-231 cells, AMP/ATP luminescence assay) [2]	binding result [3]	EC50 [4]	EC50 [5]	EC50 [6]
B1	8.25 nM	0.0068 s⁻¹	827000 M⁻¹ s⁻¹	–	–	–	–	–
B2	7.67 nM	0.00557 s⁻¹	726000 M⁻¹ s⁻¹	–	–	–	–	–
B3	0.569 nM	0.000126 s⁻¹	221000 M⁻¹ s⁻¹	0.127 µg/mL	no binding (tested: 4μg/ml (highest concentration tested))	0.0427 µg/mL	0.0339 µg/mL	0.438 µg/mL
B4	1.85 nM	0.000198 s⁻¹	107000 M⁻¹ s⁻¹	–	–	–	–	–
